The text below walks through data of publication PMC5717063.

The target in assay [1] is mammalian wild-type HSP60 purified from porcine liver (porcine).
For assay [2] the target is unchanged. Put plainly: transmission electron microscopy; HSP60 alone, without nucleotide (Figure S1A).
Assay [3] has the same target. Put plainly: transmission electron microscopy; HSP60 with HSP10 and ATP; side views classified, over 100 molecules counted.
For assay [4] the target is unchanged. Briefly: transmission electron microscopy; HSP60 alone with ATP; side views classified, over 100 molecules counted.
Assay [5] shares this target. Briefly: transmission electron microscopy; HSP60 alone with GTP; side views classified, over 100 molecules counted.

Regarding “mammalian wild-type HSP10 purified from porcine liver (from UniProt F1SMZ6 1-102) (natural protein)”, the refolding yield of chemically denatured rhodanese by HSP60/HSP10 in the presence of GTP (recovery of enzymatic activity, 60 min) in assay [1] was determined as 40%.
In general, stoichiometry N refers to a count of units in the complex or per binding partner. “mammalian wild-type HSP60 purified from porcine liver (natural protein)” gave a stoichiometry N in assay [2] of 7. In assay [3], this substance showed a percent of HSP60 in double-ring structures of 70%. In assay [4], the percent of HSP60 as double-ring (HSP60 14) turned out to be 40% and the stoichiometry N was determined as 14. The same substance registered a percent of HSP60 as double-ring in assay [5] of 20%.
